Data from the nanobody polyreactivity screen of Harvey et al. (2022).

experiment: yeast display, Sf9 membrane polyspecificity reagent, FACS + sequencing; frameworks hold sequencing errors
Method in brief: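 A synthetic nanobody library was expressed on Saccharomyces cerevisiae BJ5465 by galactose induction for 36–48 hours. The library was stained for 1 hour at 4 °C with 10% biotinylated, detergent-solubilized Sf9 membrane reagent and enriched with streptavidin microbeads before FACS. Low and high (top ~1%) gates were set on anti-HA fluorescence for expression and streptavidin fluorescence for reagent binding, and each polyreactivity label reflects the gate of origin.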

Sequence	polyreactivity (PSR sort gate)
QVQLVESGGGLVQAGGSLRLSCAASGSIFGTNAMGWYRPAPGKERELVAAINWSGGTTYYADSVKGRFTISRDNAKNTVYLQMNSLKPEDTAVYYCNADIEKSYNYWGQGTQVTVSS	low polyreactivity
QVQLVESGGGLVQAGGSLRLSCAASGLTSGYYAMGWYRQAPGKEREFVAAITWRSGSTYYADSVKGRFTISRDNAKNTVYLQMNSLKPEDTAVYYCAAVSVIYHGHNRSTYEYWGQGTQVTVSS	high polyreactivity
QVQLVESGGGLVQAGGSLRLSCAASGRIFGSYVMGWYRQAPGKERELVAAISIGGITKYADSVKGRFTISRDNAKNTVYLQMNSLKPEDTAVYYCAARLVRRYDYDYWGQGTQVTVSS	high polyreactivity
QVQLVESGGGLVQAGGSLRLSCAASGIIFIYYGMGWYRQAPGKERELVAAIARSGGRTYYADSVKGRFTISRHNAKNTVYLQMHSLKPEETAVYYCATTYTPTGFDYWGQGPQVTVSS	high polyreactivity
QGQLVESGGGLVQAGGSLRLSCAASGRISYYYAMGWYRQAPGKERELVAAISRRSTSTYYADSVKGRFTISRDYAKNTVYLQMNSLKPEDTAVYYCAARYIRAFSWRMDYWGQGTQVTVSS	high polyreactivity
QVQLVESWGGLVQAGGSHRLSCAASGRTFPIYAMGWYRQAPGKERELVAAITYSGGSTYYADSVKGRFTISRDNAKNTVYLQMNSLKPEDTAVYYCAVDGTKPYWHQRYDYWGQGTQVTVSS	low polyreactivity
QVQLVESGGGLVQAGGSLRLSCAASGFTYSRYAMGWYRQAPGKERELVAAIRLRDGITYYADSVKGRITISRDNAKNTVYLQMNRLKPEDTAVYYCNAVNRTPVSQLDYWGQGTQVTVSS	high polyreactivity
QVQLVESGGGLVQAGGSLRLSCAASGRTFYKYMGWYRQAPGKERELVAAIRWSGGSTYYADSVKGRFTISRDNAKNTVYLQMNSLKPEDTAVYYCAAGKQAPAVNYGYYYWGQGTQVTVSS	low polyreactivity
QVQLVESGGGLVQAGGSLRLSCDASGSTSSKYAMGWYRQAPGKEWQLVATISWRTGSTYYADSVKGRFTISRDNAKNTVYLEMNSLKPEETAVYYCNARVAGRRKYDYWGQGTQVTVSS	high polyreactivity
QVQLVESGGCLVQAGGSLRLSCAASGFIFAKYAMGWYRQAPGKEREFVAAISFSGASTYYADSVKGRFTISRDNAKNTVYLQMNSLKPEDTAVYYCAAYWDAEGRRYTRLEYWGQGTQVTVSS	low polyreactivity
QVQLVESGGGLVQAGGSLRLSCAAYGITFEVNAMGWYRQAPGKERELVAAINSSVASTYYADSVKGRFTISRDNAKNTVDLQMNSLKPEDTAVYYCAAQGKGGTEYGYGYWGQGTQVTVSS	low polyreactivity
QVQLVESGGGLVQAGGSLRLICDASGLTFGIYTMGWYRQAPAKESELVAAINWIGTRTYYADSVKGRFTISRDNAKNTVYLQMNSLKPEDTAVYYCATVIGYTKRKYDYWGQGTQVTVSS	high polyreactivity
QVQLVESGGGLFQAGGSLRLTCAASGSIFTVYSIGLYRQAPGKERELVAGISSGAGTTYADSVKGRFTISRDNAKNTVYLQMNSLIPEVTAVYYCAAYTWDTDHYWYGYVPYDYWGQGTQVTVSS	low polyreactivity
QVQLEESGGGLVQAGGSLRLSCAASGITFAHYAMGWSRQAPGKDRELVAAISQSGGSTYYADSVKGRFTISRDNAKNTVYLQMNSLKPEDTAVYYCNKYRYPQDDYWGQGTQVTVSS	high polyreactivity
QVQLVESGGGLVQAGGSLGLSCAASGSNFHSYAMGWYRQAPGKERELVGAISWCGGSTNYSDSVKGRFTISRDNAKNTVYLQMNSLKPEDTAVYYCAAKEFGSDEYKTGSGYDYWGQCTQVTVSS	low polyreactivity
QEQLQESGGGLVQAGGSLRLSCAASGTITVLYKMGWFRQAPGKEREFVASINYGTSTYYADSVKGRFTVSRDSAKNTVYLQMNSLKPEDTAVYYCAAAYRWQDVYRYWGQGTQVTVSS	low polyreactivity
QVQLVESGGGLVQAGGSLRLSCAASGSTFYYYAMGWYRQAPGKDRELVAAISKRDGRTYYADSVKGRFTISRDNAKNTVYLQMNSLKPEDTAVYYCNAYSYGHYYWGQGTQVTVSS	high polyreactivity
QVQLVESGGGLVQAGGSLRLSCAASGRIFRYSAMGWYRQAPGKERELVAAISSDGSTDYADSVKGRFTISRDNAKNTVYLQMNSLKPEDTAVYYCAASVVSYGHDYWGQGTQVTVSS	low polyreactivity
QVQLVESGGGLVQAGVSLLLSCAASGRTFYANAMGWYSQAPGKEREFVAAISYGTGGTYYADSVKGRFTISRDNAKNTVYLQMNTLKPEDTAVYYCAASLYWGIYGWMGYWGQGTQVTVSS	high polyreactivity
QVQLVESGGGLVQAGGSLRLSCAASGSTFGGNAMGWYRQAPGKERELVAAITIGGRTNYADSVKGRFTISRDNAKNTVYLQMNSLKPEDTAVYYCAKDRDQWQDYWGQGTQVTVSS	low polyreactivity
QVQLVESGGGLVQAGGSLRLSCAASGRTFTLYAMGWYRQAPGKERELVASITTGGRTYYADSVKGRFTISRDNAKNTVYLKMNSLKPEDTAVYYCNADRVYAWYRTYEYWGQGTEVTVSS	high polyreactivity
QVQLVESGGGLVQAGGILRISCAASGRTFASNAMGWYRRAPGKERELVAAMSSSGGRTYYADSVKGRITISRDNAKNTVYLQMNSLKPEYTPVFYCAKVGPVYKYDYWGQGTQVTVSS	high polyreactivity

Sequence	polyreactivity (PSR sort gate)
QVQLVESGGGLVQAGGSLRLSCAASGLIFYDNMGWYRPAPGKERELVAAISSSGGSTSYADSVKGRFTISRDNAKNTVYLQMNSLKPEDTAVYYCAARLVYEWRRLDYFIAWDYWGQGTQVTVSS	low polyreactivity
QVQLVESGGGLVQAGGSLRLSCAASGSIFTYNAMGWYRQAPGKERELVAAISRGGGRTYYADSVKGRFTISRDNAKNTVYLQMNSLKPEDTAVYYCAADIYVRQRYPYYYWGQGTQVTVSS	high polyreactivity
QVQLVESGGGLVQAGGSLRLSCAASGSIFTSYAMGWYRQAPGKERELVAAIDWSGGTTYYADSVKGRFTISRDNAKNPVYLQMNSLKPEDTAVYNRAADIYKYTVGSYDYWGQGTQVTVSS	low polyreactivity
QVQLVESGGGLVQAGGSLRLSCAASGRTSWANVMGWYRQAPGKERELVAAISSSGDSTYYADSVKGRFTISRDNAKNTVYLQMNSLKPEDTAVDYCAAGYELSDLAILDYRYDYWGQGSQVTVSS	low polyreactivity
QVQLLESGGGLVQAGGSLRLSCAASGRTFRYYAMGWYRQAPGKERELVAAITANGGSTYYADSVKGRFTISRDNAKNTVYLQMNSLKPEDTAVYYCAAKYNTKLYYWGQGTQVTVSS	high polyreactivity
QVQLVESGGGLVQAGGSLRLSCAASGFILLYYAMGWYRQAPGKERELVAANSWTGGRTYYADSVKGRFTISRDNAKNTVYLQMTSLKPEDSAVYYCNTDKFFGRKYGYWGQGTQVTVSS	low polyreactivity
QVQLVESGGGLVQAGGSLRLSCAASGRTFVRYAMGWSRQAPGKERELVAAITKSGGSTSYADSVKGRFTISRDNAKNTVYLQMNSLKPEDTAVYYCATRGYYQRSSPMDYWGQGTQVTVSS	high polyreactivity
QVQLVESGGGLVQAGGSLRLSCAASGSIFGFYAMGWYRQAPGKERELVAAISSDGGSTYYADSVKGRFTISRDNAKNTVYLQMNSLKPEDTAVYYCAAAHGSIYDSTYYEYYYWGQGTQVTVSS	low polyreactivity
QVQLVESGGGLVQAGGSLRLSCTASGIIFGTFAMGWYRQAPGKERELVAAISSSGVSTYYADSVKGRFTISRDNAKNTVYLQMNSLKPEDTAVYYCAAPLHYGYYYWGQGTQVTVSS	high polyreactivity
QVQLVESGGGLVQAGGSLRLSCAASGSTFYLYAMGWYRPAPGKERELVASITSGDGSTYYADSVKGRFTISRDNAKNTVYLQMNSLKPEDTAVYYCNAVLEGWFYQYDYWGQGTQVTVSS	low polyreactivity
QDQLVESVGGLVQAGVSLPLSCAASGIIFLYNDMGWFRQARGKAREFVATLSRSGGSTYYADSVKGRVTISRDNAKNTVYLQMNRLKPEETAVYYCAADEDSGYGYWGQGTQVTVTS	low polyreactivity
QVQLVESGGGLVQAGGSLRLSCAASGSIFTWYAMGWSRQAPGKERELVAAITRGGSTYADSVKGRFTISRDNANYTVYLQMNSLKPADTAVYYCNAVYGVYDFNYWGQGTQVTVSS	low polyreactivity
QVQLVESGGGLVQAGGSLRLSCAASGGTFIANAMGWYRPAPGKERELVAAITSRGGNTYYADSVKGRFTISRDNAKNTVYLQMNSLKPEDTSVYYCAARNDKRRQYYVGQSAFDFWGQGTQVTVSS	low polyreactivity
KVQLVESGGGLVQAGGSLRLSCPASGITFYRYVMGWYRQAPGTERELVAAISSGGRTYYADSVKGRFTISRDNAKNTVYLQMNSLKPEDNAVYYCNRAAFQTRYESWGQGTQVTVSS	high polyreactivity
QVQLVESGGGLVQAGGSLRLTCAATGSILSRYAMGWYRLAPGKERELVATITRRGGSTFYADSVKGRFTISRDIAKNTVYLQMNSLKPEDTAVYYCAVGRLFWGQGTQVTVSS	low polyreactivity
QVQLVESGGGLVQAGGSLRLSCAASGSIFFGNAMGWYRQAPGKERELVAAISSRGTSTYYADSVKGRFTISRDNAKNTVYLQMNSLKPEDTAVYYCNKRVRTFRGGPLAGYDYWGQGTQVTVSS	high polyreactivity
QVQLVESGGGLVQAGGSLRLSCDASGRIFSLYAMGWYRQAPGKERELVAAISRRSGNTNYADSVKGRFTISRDNAKNNVFLQLNSLKPEDTAVYFCAARPGAISSTSPYDYWGEGTQVTVSS	high polyreactivity
QVQLVESGGGLVQAGGSLRLSCAASGFIYRKNAMGWYRQAPGKERELVATITKSGDTTYYADSVKGRFTISRDNAKNTVYLQMNSLKPEDTAVYYCAAPLYYIGSWDYYVRYIYDYWGQGTQVTVSS	low polyreactivity
QVQLVESGGGLVQAGGSLRLSCAASGSTFPPNAMGWYRQAPGKERELVADSSDSSTYYADSVKGRFTISRDNAKNTVYLQMNSLKPEDTAVYYCAAADAGLRSKSYGQQYDYWGQGTQVTVSS	low polyreactivity
QVQLVESGGGLVQAGGSLRLSCAASGRTFVYYAMGWYRQAPGKERELVAAITSGGSTYYADSVKGRFTISRDNAKNTVYLQMNSLKPEDTAVYYCNKARVRGARFDYWGQGTQVTVSS	high polyreactivity
QVQLVESGGGLVQAGGSLRLSCAASGSTFGPNPMGWYRQAPGKERELVAAISRAGRTYYADSVKGRFTISRDNAKNTVYLQMNSLKPEDTAVYYCNAGRSYHWRAGGEYDYWGQGTQVTVSS	low polyreactivity
